Experimental data as given in patent US20070087413A1 (GENHUNTER, published 2007).
Where “and” joins values, the source holds several entries; their conditions need not be identical. Equal entries are not always repeated.

Molecular target: human TNF-α (R & D Systems) (human, UniProt P01375 77-233)
Test: cell-based or functional assay

human TNF-α (R & D Systems), sequence (P01375 77-233 limits assumed): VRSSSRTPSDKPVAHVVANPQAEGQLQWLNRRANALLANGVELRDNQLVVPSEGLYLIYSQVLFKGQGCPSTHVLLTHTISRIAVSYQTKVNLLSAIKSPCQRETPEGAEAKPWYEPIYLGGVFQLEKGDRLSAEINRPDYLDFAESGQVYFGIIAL

B1: trimeric soluble human TNF-RII-T2 fusion protein (human soluble TNF-RII fused to the T2 C-propeptide of human α(I) collagen) (receptor)
chain: LPAQVAFTPYAPEPGSTCRLREYYDQTAQMCCSKCSPGQHAKVFCTKTSDTVCDSCEDSTYTQLWNWVPECLSCGSRCSSDQVETQACTREQNRICTCRPGWYCALSKQEGCRLCAPLRKCRPGFGVARPGTETSDVVCKPCAPGTFSNTTSSTDICRPHQICNVVAIPGNASMDAVCTSTSPTRSMAPGAVHLPQPVSTRSQHTQPTPEPSTAPSTSFLLPMGPSPPAEGSTGSDANVVRDRDLEVDTTLKSLSQQIENIRSPEGSRKNPARTCRDLKMCHSDWKSGEYWIDPNQGCNLDAIKVFCNMETGETCVYPTQPSVAQKNWYISKNPKDKRHVWFGESMTDGFQFEYGGQGSDPADVAIQLTFLRLMSTEASQNITYHCKNSVAYMDQQTGNLKKALLLKGSNEIEIRAEGNSRFTYSVTVDGCTSHTGAWGKTVIEYKTTKSSRLPIIDVAPLDVGAPDQEFGFDVGPVCFL
- apparent Ki-50 (50% inhibition) of TNF-α mediated apoptosis of WEHI-13VAR cells, human TNF-α at 0.5 ng/mL: ~2 ng/mL and ~8e-12 M
